Residue numbers refer to the chain shown, from its start. Names may count otherwise.
B1: CH2-CH3 fragment of human IgG1 with K409R (other, UniProt P01857-1 224-330, looked up, name in EU numbering)
chain: GQPREPQVYTLPPSRDELTKNQVSLTCLVKGFYPSDIAVEWESNGQPENNYKTTPPVLDSDGSFFLYSRLTVDKSRWQQGNVFSCSVMHEALHNHYTQKSLSLSPGK
notes: range 341-447; As m1, with the mutation; also called G1-K409R; not shown: N-terminal 6 amino acid His tag
B2: CH2-CH3 fragment of wild type human IgG4 (other, UniProt P01861-1 221-327, looked up)
chain: B1 chain with R15Q, D16E, L18M, Q79E, P105L
notes: range 341-447; His-tagged fragment without hinge; the KD is its non-covalent self-association (CH3-CH3 homodimer); not shown: N-terminal 6 amino acid His tag
B3: CH2-CH3 fragment of human IgG4 with R409K (other, UniProt P01861-1 221-327, looked up, name in EU numbering)
chain: B1 chain with R15Q, D16E, L18M, R69K, Q79E, P105L
notes: range 341-447; As m7, with the mutation; also called G4-R409K; not shown: N-terminal 6 amino acid His tag
B4: CH2-CH3 fragment of human IgG4 with R409A (other, UniProt P01861-1 221-327, looked up, name in EU numbering)
chain: B1 chain with R15Q, D16E, L18M, R69A, Q79E, P105L
notes: range 341-447; As m7, with the mutation; also called G4-R409A; not shown: N-terminal 6 amino acid His tag
B5: CH2-CH3 fragment of human IgG4 with R409L (other, UniProt P01861-1 221-327, looked up, name in EU numbering)
chain: B1 chain with R15Q, D16E, L18M, R69L, Q79E, P105L
notes: range 341-447; As m7, with the mutation; also called G4-R409L; not shown: N-terminal 6 amino acid His tag
B6: CH2-CH3 fragment of human IgG4 with R409M (other, UniProt P01861-1 221-327, looked up, name in EU numbering)
chain: B1 chain with R15Q, D16E, L18M, R69M, Q79E, P105L
notes: range 341-447; As m7, with the mutation; also called G4-R409M; not shown: N-terminal 6 amino acid His tag
B7: CH2-CH3 fragment of human IgG4 with R409T (other, UniProt P01861-1 221-327, looked up, name in EU numbering)
chain: B1 chain with R15Q, D16E, L18M, R69T, Q79E, P105L
notes: range 341-447; As m7, with the mutation; also called G4-R409T; not shown: N-terminal 6 amino acid His tag
B8: CH2-CH3 fragment of human IgG4 with R409W (other, UniProt P01861-1 221-327, looked up, name in EU numbering)
chain: B1 chain with R15Q, D16E, L18M, R69W, Q79E, P105L
notes: range 341-447; As m7, with the mutation; also called G4-R409W; not shown: N-terminal 6 amino acid His tag
B9: CH2-CH3 fragment of human IgG4 with F405A (other, UniProt P01861-1 221-327, looked up, name in EU numbering)
chain: B1 chain with R15Q, D16E, L18M, F65A, Q79E, P105L
notes: range 341-447; As m7, with the mutation; also called G4-F405A; not shown: N-terminal 6 amino acid His tag
B10: CH2-CH3 fragment of human IgG4 with F405L (other, UniProt P01861-1 221-327, looked up, name in EU numbering)
chain: B1 chain with R15Q, D16E, L18M, F65L, Q79E, P105L
notes: range 341-447; As m7, with the mutation; also called G4-F405L; not shown: N-terminal 6 amino acid His tag
B11: CH2-CH3 fragment of human IgG4 with L351K (other, UniProt P01861-1 221-327, looked up, name in EU numbering)
chain: B1 chain with L11K, R15Q, D16E, L18M, Q79E, P105L
notes: range 341-447; As m7, with the mutation; also called G4-L351K; not shown: N-terminal 6 amino acid His tag
B12: CH2-CH3 fragment of human IgG1 with T350I (other, UniProt P01857-1 224-330, looked up, name in EU numbering)
chain: B1 chain with T10I, R69K
notes: range 341-447; As m1, with the mutation; also called G1-T350I; not shown: N-terminal 6 amino acid His tag
B13: CH2-CH3 fragment of human IgG4 with E357T (other, UniProt P01861-1 221-327, looked up, name in EU numbering)
chain: B1 chain with R15Q, D16E, E17T, L18M, Q79E, P105L
notes: range 341-447; As m7, with the mutation; also called G4-E357T; not shown: N-terminal 6 amino acid His tag
B14: CH2-CH3 fragment of human IgG4 with S364D (other, UniProt P01861-1 221-327, looked up, name in EU numbering)
chain: B1 chain with R15Q, D16E, L18M, S24D, Q79E, P105L
notes: range 341-447; As m7, with the mutation; also called G4-S364D; not shown: N-terminal 6 amino acid His tag
B15: CH2-CH3 fragment of human IgG4 with K370Q (other, UniProt P01861-1 221-327, looked up, name in EU numbering)
chain: B1 chain with R15Q, D16E, L18M, K30Q, Q79E, P105L
notes: range 341-447; As m7, with the mutation; also called G4-K370Q; not shown: N-terminal 6 amino acid His tag
B16: CH2-CH3 fragment of human IgG4 with K370E (other, UniProt P01861-1 221-327, looked up, name in EU numbering)
chain: B1 chain with R15Q, D16E, L18M, K30E, Q79E, P105L
notes: range 341-447; As m7, with the mutation; also called G4-K370E; not shown: N-terminal 6 amino acid His tag
B17: CH2-CH3 fragment of human IgG1 with F405L (other, UniProt P01857-1 224-330, looked up, name in EU numbering)
chain: B1 chain with F65L, R69K
notes: range 341-447; As m1, with the mutation; also called G1-F405L; not shown: N-terminal 6 amino acid His tag
B18: CH2-CH3 fragment of human IgG1 with T350I-K370T-F405L (other, UniProt P01857-1 224-330, looked up, name in EU numbering)
chain: B1 chain with T10I, K30T, F65L, R69K
notes: range 341-447; also called G1-ITL; not shown: N-terminal 6 amino acid His tag
B19: CH2-CH3 fragment of human IgG1 with K370T (other, UniProt P01857-1 224-330, looked up, name in EU numbering)
chain: B1 chain with K30T, R69K
notes: range 341-447; As m1, with the mutation; also called G1-K370T; not shown: N-terminal 6 amino acid His tag

Legend:
[1] = molecular target: the molecule itself; test: native mass spectrometry; monomer-dimer equilibrium of the hinge-less CH2-CH3 fragment (homodimer)
Experimental: (§1) To measure the effect of the above mentioned CH3 mutations on the strength of the CH3-CH3 interaction, fragments composed of only the CH2-CH3 domains were made. The lack of a hinge region in these fragments prevented covalent inter-heavy chain disulfide bonds. The fragments were analyzed by native mass spectrometry. Samples were buffer-exchanged to 100 mM ammonium acetate pH 7, using 10 kDa MWCO spin-filter columns. Aliquots (˜1 μL) of serial diluted samples (20 μM-25 nM; monomer equivalent) were loaded into gold-plated borosilicate capillaries for analysis on a LCT mass spectrometer (Waters). The monomer signal, Mₛ, was defined as the area of the monomer peaks as a fraction of the area of all peaks in the spectrum (Mₛ/(Mₛ+Dₛ) where Dₛ=the dimer signal). The concentration of monomer at equilibrium, [M]eq, was defined as Mₛ·[M]₀ where [M]₀ is the overall protein concentration in terms of monomer. The dimer concentration at equilibrium, [D]eq, was defined as ([M]₀−[M]eq)/2. The KD, was then extracted from the gradient of a plot of [D]eq versus [M]eq².

[2] = molecular target: the molecule itself; test: native mass spectrometry; CH2-CH3 fragment homodimer
Experimental: as §1, with “The” for “To measure the effect of the above mentioned CH3 mutations on the strength of the CH3-CH3 interaction, fragments composed of only the CH2-CH3 domains were made. The lack of a hinge region in these fragments prevented covalent inter-heavy chain disulfide bonds. The”
It is described in Example 21 that there is a specific range in the strength of the interaction of the CH3-CH3 homodimers that allows efficient Fab-arm-exchange. The strength of the interactions at the CH3 interface should be such that it is possible that both heavy chains in the parental antibodies (homodimers) dissociate in the Fab-arm-exchange reaction and that they subsequently associate in the heterodimerization reaction. To generate a stable heterodimer, the strength of the heterodimer interaction should be greater than the strength of the homodimer interaction, such that it favors heterodimerization over homodimerization. To confirm this, the strength of the CH3-CH3 interaction in the heterodimers was measured and compared to the strength in the homodimers. The KD of the CH2-CH3 fragments derived from IgG1-K409R, IgG1-F405L and IgG1-ITL homodimers were measured as described in Example 21. For the determination of the KD in heterodimers, CH2-CH3 domain fragments (G1-F405L and G1-ITL) were mixed with the IgG1Δhinge fragment of IgG1-7D8-K409R, which contain all antibody domains except the hinge. […] The fragments were mixed and analyzed after 24 hours by native mass spectrometry as described in Example 21. […]

[3] = molecular target: the molecule itself; test: native mass spectrometry; KD compared to the wild type IgG1 CH2-CH3 fragment
Experimental: as §1

[4] = molecular target: the molecule itself; test: native mass spectrometry; KD compared to the wild type IgG4 CH2-CH3 fragment
Experimental: as §1

Protein | Kd [1] | Kd [2] | fold-difference [3] | fold-difference [4]
B1 | 110 nM | 110 nM | 0.03 fold | –
B2 | 48 nM | – | – | 1 fold
B3 | 8 nM | – | – | 6 fold
B4 | 160 nM | – | – | 0.3 fold
B5 | 15 nM | – | – | 3.2 fold
B6 | 3 nM | – | – | 16 fold
B7 | 720 nM | – | – | 0.07 fold
B8 | 34000 nM | – | – | 0.0014 fold
B9 | 19000 nM | – | – | 0.0025 fold
B10 | 25000 nM | – | – | 0.0019 fold
B11 | 740 nM | – | – | 0.06 fold
B12 | 7 nM | – | 0.4 fold | –
B13 | 41000 nM | – | – | 0.0012 fold
B14 | 47 nM | – | – | 1.02 fold
B15 | 11 nM | – | – | 4.3 fold
B16 | 2 nM | – | – | 24 fold
B17 | – | 850 nM | – | –
B18 | 1000 nM | 1200 nM | 0.003 fold | –
B19 | 45 nM | – | 0.07 fold | –
